The values that follow come from PMC6022668, “Biallelic UFM1 and UFC1 mutations expand the essential role of ufmylation in brain development” (Brain, 2018).

Where a chain is given by its changes, count along the chain named. Names may count otherwise.

For the test, the target named is T1, GST-UBA5 (UniProt Q9GZZ9 1-404).
T1 construct: also called E1-like enzyme for ufmylation; source: recombinant, E. coli, purified on Glutathione Sepharose 4B (GST kept)
Kind of test: pull-down; GST-UBA5 bound to Glutathione Sepharose 4B, incubated 20 min at 4°C with purified proteins in 20 mM Tris-Cl pH 7.5, 150 mM NaCl, 1 mM EDTA, 1 mM DTT, 0.05% Nonidet P-40; NuPAGE and Coomassie staining. As to conditions: both partners purified.

T1 sequence (Q9GZZ9 whole entry): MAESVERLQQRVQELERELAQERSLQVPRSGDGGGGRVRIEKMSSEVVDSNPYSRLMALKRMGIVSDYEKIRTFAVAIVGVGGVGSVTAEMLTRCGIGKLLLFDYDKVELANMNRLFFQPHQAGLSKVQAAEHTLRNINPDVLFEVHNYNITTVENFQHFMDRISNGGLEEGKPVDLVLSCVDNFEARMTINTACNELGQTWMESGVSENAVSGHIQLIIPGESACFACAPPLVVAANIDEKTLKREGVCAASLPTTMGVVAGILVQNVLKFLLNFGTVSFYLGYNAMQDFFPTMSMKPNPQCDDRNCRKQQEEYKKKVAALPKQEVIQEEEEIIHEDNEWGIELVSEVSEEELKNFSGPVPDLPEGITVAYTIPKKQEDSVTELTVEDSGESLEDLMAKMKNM

B1: UFC1 (wild type, recombinant) (enzyme, human, UniProt Q9Y3C8 1-167, looked up)
chain: MADEATRRVVSEIPVLKTNAGPRDRELWVQRLKEEYQSLIRYVENNKNADNDWFRLESNKEGTRWFGKCWYIHDLLKYEFDIEFDIPITYPTTAPEIAVPELDGKTAKMYRGGKICLTDHFKPLWARNVPKFGLAHLMALGLGPWLAVEIPDLIQKGVIQHKEKCNQ
notes: UFC1, human, the E2-like conjugating enzyme of UFM1; also called E2-like enzyme for ufmylation; source: recombinant, E. coli, purified on Glutathione Sepharose 4B, GST removed by PreScission protease
For the molecule B1, the binding result is “binds”.

B2: UFC1 T106I (recombinant) (enzyme, human, UniProt Q9Y3C8 1-167, looked up)
chain: B1 chain with T106I
notes: UFC1, human, with the patients' homozygous variant c.317C>T p.(Thr106Ile); A variant found in patients; also called p.(Thr106Ile); source: recombinant, E. coli, purified on Glutathione Sepharose 4B, GST removed by PreScission protease
Consider B2, for which the binding result is listed as “binds”.
